Measured values: paper PMC5462531

Experiments:
[1] = molecular target: V^QRYBC, VBC with the pVHL triple mutation K159Q, S183R, D187Y (human) (UniProt P40337); experiment: ITC; Cul5NTD titrated into VBC or SBC proteins (Figure 7D: 200 μM into 20 μM, 303 K); 100 mM Bis tris propane pH 8.0, 50 mM NaCl, 2 mM TCEP; one-set-of-sites model
[2] = molecular target: SBC, trimeric complex of SOCS2, Elongin B and Elongin C (wild type) (UniProt O14508); experiment: as above
[3] = molecular target: S^KSDBC, SBC with the SOCS2 triple mutation Q164K, R186S, Y190D (UniProt O14508); experiment: as above
[4] = molecular target: Rbx1-Cul2, dimeric complex of full-length Rbx1 and full-length Cullin-2 (wild type) (human) (UniProt Q13617); experiment: ITC; VBC or SBC proteins (200 μM) titrated into Rbx1-Cul2 (20 μM), 303 K; 100 mM Bis tris propane pH 8.0, 50 mM NaCl, 2 mM TCEP; one-set-of-sites model
Rbx1-Cul2, dimeric complex of full-length Rbx1 and full-length Cullin-2 (wild type) (human), sequence (Q13617 whole entry, chain 1 of 2): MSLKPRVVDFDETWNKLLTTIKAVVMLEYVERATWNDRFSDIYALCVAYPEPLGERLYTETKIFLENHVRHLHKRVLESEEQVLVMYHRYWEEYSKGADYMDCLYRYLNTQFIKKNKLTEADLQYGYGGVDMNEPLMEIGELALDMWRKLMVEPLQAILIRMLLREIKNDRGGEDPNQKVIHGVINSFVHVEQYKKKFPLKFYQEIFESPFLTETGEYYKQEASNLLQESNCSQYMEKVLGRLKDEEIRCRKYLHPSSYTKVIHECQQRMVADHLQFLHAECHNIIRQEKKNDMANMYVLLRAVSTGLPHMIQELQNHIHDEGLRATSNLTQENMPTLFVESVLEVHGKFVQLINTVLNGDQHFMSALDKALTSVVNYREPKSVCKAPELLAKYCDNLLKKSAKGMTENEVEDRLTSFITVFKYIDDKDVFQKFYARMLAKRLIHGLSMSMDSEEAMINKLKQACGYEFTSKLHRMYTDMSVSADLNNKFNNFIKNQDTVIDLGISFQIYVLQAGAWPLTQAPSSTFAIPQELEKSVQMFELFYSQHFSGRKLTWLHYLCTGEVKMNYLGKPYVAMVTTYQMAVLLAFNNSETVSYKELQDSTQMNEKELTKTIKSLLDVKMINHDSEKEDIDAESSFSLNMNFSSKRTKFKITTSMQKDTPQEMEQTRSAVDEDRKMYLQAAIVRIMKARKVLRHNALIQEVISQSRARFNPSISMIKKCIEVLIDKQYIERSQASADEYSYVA
Rbx1-Cul2, dimeric complex of full-length Rbx1 and full-length Cullin-2 (wild type) (human), sequence (P62877 whole entry, chain 2 of 2, further chain): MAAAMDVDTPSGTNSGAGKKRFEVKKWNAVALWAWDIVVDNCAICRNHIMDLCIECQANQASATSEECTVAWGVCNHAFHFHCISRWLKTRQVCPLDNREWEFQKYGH

Cul5NTD, N-terminal domain of Cullin-5 (residues 1-386), sequence (Q93034 1-386): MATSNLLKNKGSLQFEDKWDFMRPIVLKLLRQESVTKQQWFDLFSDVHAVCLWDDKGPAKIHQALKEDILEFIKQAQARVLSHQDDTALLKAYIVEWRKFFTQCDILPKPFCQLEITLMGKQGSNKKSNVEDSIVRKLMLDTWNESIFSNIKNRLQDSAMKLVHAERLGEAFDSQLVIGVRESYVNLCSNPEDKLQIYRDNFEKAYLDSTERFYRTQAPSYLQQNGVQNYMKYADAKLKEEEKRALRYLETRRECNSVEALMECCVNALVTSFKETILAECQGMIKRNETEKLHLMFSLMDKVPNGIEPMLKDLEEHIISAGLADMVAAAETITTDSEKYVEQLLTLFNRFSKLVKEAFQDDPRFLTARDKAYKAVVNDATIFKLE

“Cul5NTD, N-terminal domain of Cullin-5 (residues 1-386) (from UniProt Q93034 1-386) (domain or fragment)” showed a Kd [1] of 2900 nM, a Kd [2] of 10 nM and a Kd [3] of 250 nM.

Substance “S^KSDBC, SBC with the SOCS2 triple mutation Q164K, R186S, Y190D (from UniProt O14508 32-198; Q15370 1-104; Q15369 17-112) (complex; other documents disagree on this pair)” has a Kd [4] of 2500 nM.
